The target in experiment [1] is T1, Archaeoglobus fulgidus DsrAB dissimilatory sulfite reductase (Archaeoglobus fulgidus VC-16 …, UniProt Q59109 1-418; Q59110 1-366). Put plainly: SPR. For orientation: Surface plasmon resonance follows binding to a sensor surface in real time, without labels.
Experiment [2] has as its target T1, Archaeoglobus fulgidus DsrAB …. Put plainly: MST.

The source of these data is paper PMC8794893 (Proceedings of the National Academy of Sciences of the …, 2022).

T1 sequence (Q59109 whole entry, chain 1 of 2): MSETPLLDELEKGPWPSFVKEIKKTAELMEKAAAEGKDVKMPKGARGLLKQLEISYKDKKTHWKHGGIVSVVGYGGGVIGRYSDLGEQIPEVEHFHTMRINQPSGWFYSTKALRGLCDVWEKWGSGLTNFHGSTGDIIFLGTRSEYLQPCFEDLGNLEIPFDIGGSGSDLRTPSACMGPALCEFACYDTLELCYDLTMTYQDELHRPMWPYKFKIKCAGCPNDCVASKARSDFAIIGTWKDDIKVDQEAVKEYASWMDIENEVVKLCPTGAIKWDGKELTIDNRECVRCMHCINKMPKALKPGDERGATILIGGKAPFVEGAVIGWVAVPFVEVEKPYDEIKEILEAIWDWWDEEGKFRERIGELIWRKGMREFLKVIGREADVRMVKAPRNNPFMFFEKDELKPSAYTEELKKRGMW
T1 sequence (Q59110 whole entry, chain 2 of 2): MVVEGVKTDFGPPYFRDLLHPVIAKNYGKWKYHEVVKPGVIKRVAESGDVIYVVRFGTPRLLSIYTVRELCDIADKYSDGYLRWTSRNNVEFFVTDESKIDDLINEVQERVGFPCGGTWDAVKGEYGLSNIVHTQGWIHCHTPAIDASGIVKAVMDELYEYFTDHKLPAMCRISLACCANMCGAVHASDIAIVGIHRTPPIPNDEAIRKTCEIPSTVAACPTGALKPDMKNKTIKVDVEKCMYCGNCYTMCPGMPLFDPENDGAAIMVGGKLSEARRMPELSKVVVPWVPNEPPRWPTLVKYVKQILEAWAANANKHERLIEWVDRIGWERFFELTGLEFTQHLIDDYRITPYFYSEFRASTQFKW

B1: recombinant Archaeoglobus fulgidus DsrD with C-terminal His-tag (natural protein, Archaeoglobus fulgidus VC-16, UniProt P70742 1-77, looked up)
chain: MADYTEEDKQKVLAQLSKKTWKIPELAKILKMDKKVVKKIVQDLINEGVAGYWSSGSTTYVATKEYIEELEKKRAEG
modifications: RED-NHS dye on amines (Monolith NT Protein Labeling Kit RED-NHS second generation), in the MST experiment only
As a reminder, the Kd is the free concentration of one partner at which half of the binding sites on the other are occupied at equilibrium, for simple one-to-one binding. Consider B1, for which the values for the Kd in experiment [1] and in experiment [2] were 540 ± 20 nM and 350 ± 60 nM, respectively.
